Values belong to the substance of their own block, whether it stands above or below them.
Experiments:
[1] = target: human ciliary neurotrophic factor receptor (CNTFR) (human); experiment: indirect binding assay on COS cells transfected with clone I5: 1 ug/ml CNTF-myc, 9E10, 125I goat anti-mouse antibody; hand-held gamma counter
[2] = target: human ciliary neurotrophic factor receptor (CNTFR) (human); experiment: indirect binding assay on COS cells transfected with clone I15: 1 ug/ml CNTF-myc, 9E10, 125I goat anti-mouse antibody; hand-held gamma counter
[3] = target: human ciliary neurotrophic factor receptor (CNTFR) (human); experiment: indirect binding assay on COS cells transfected with clone I9: 1 ug/ml CNTF-myc, 9E10, 125I goat anti-mouse antibody; hand-held gamma counter
[4] = target: human ciliary neurotrophic factor receptor (CNTFR) (human); experiment: indirect binding assay on COS cells transfected with clone I6: 1 ug/ml CNTF-myc, 9E10, 125I goat anti-mouse antibody; hand-held gamma counter
[5] = target: human ciliary neurotrophic factor receptor (CNTFR) (human); experiment: indirect binding assay on COS cells transfected with clone I10: 1 ug/ml CNTF-myc, 9E10, 125I goat anti-mouse antibody; hand-held gamma counter
[6] = target: human ciliary neurotrophic factor receptor (CNTFR) (human); experiment: indirect binding assay on COS cells transfected with clone I8: 1 ug/ml CNTF-myc, 9E10, 125I goat anti-mouse antibody; hand-held gamma counter
[7] = target: human ciliary neurotrophic factor receptor (CNTFR) (human); experiment: indirect binding assay on COS cells transfected with clone I2: 1 ug/ml CNTF-myc, 9E10, 125I goat anti-mouse antibody; hand-held gamma counter
[8] = target: human ciliary neurotrophic factor receptor (CNTFR) (human); experiment: indirect binding assay on COS cells transfected with clone I12: 1 ug/ml CNTF-myc, 9E10, 125I goat anti-mouse antibody; hand-held gamma counter
[9] = target: human ciliary neurotrophic factor receptor (CNTFR) (human); experiment: indirect binding assay on COS cells transfected with clone I4: 1 ug/ml CNTF-myc, 9E10, 125I goat anti-mouse antibody; hand-held gamma counter
[10] = target: human ciliary neurotrophic factor receptor (CNTFR) (human); experiment: indirect binding assay on COS cells transfected with clone I7: 1 ug/ml CNTF-myc, 9E10, 125I goat anti-mouse antibody; hand-held gamma counter
[11] = target: human ciliary neurotrophic factor receptor (CNTFR) (human); experiment: indirect binding: CNTF-myc, 9E10 antibody, FITC-labelled goat anti-mouse antibody, FACS on transfected COS cells
[12] = target: human ciliary neurotrophic factor receptor (CNTFR) (human); experiment: indirect binding assay on COS cells transfected with clone I11: 1 ug/ml CNTF-myc, 9E10, 125I goat anti-mouse antibody; hand-held gamma counter
[13] = target: human ciliary neurotrophic factor receptor (CNTFR) (human); experiment: indirect binding assay on COS cells transfected with clone I1: 1 ug/ml CNTF-myc, 9E10, 125I goat anti-mouse antibody; hand-held gamma counter
[14] = target: human ciliary neurotrophic factor receptor (CNTFR) (human); experiment: indirect binding assay on COS cells transfected with clone I13: 1 ug/ml CNTF-myc, 9E10, 125I goat anti-mouse antibody; hand-held gamma counter
[15] = target: human ciliary neurotrophic factor receptor (CNTFR) (human); experiment: indirect binding assay on COS cells transfected with clone I14: 1 ug/ml CNTF-myc, 9E10, 125I goat anti-mouse antibody; hand-held gamma counter
[16] = target: human ciliary neurotrophic factor receptor (CNTFR) (human); experiment: monolayer binding of 2.16 nM 125I-CNTF to SH-SY5Y cells (3 x 10^5 cells/well, endogenous receptor); cpm with 1000-fold excess unlabelled CNTF subtracted
[17] = target: human ciliary neurotrophic factor receptor (CNTFR) (human); experiment: approx. 100 pM iodinated CNTF on SH-SY5Y cells pre-treated with PI-PLC 500 mU/ml; with thousand-fold excess unlabelled CNTF (non-specific)
[18] = target: human ciliary neurotrophic factor receptor (CNTFR) (human); experiment: approx. 100 pM iodinated CNTF on SH-SY5Y cells; control pre-treatment without PI-PLC; with thousand-fold excess unlabelled CNTF (non-specific)
[19] = target: human ciliary neurotrophic factor receptor (CNTFR) (human); experiment: monolayer binding of 2.16 nM 125I-CNTF to COS cells transfected with clone I2 (6.5 x 10^4 cells/well); specific cpm per cell
[20] = target: human ciliary neurotrophic factor receptor (CNTFR) (human); experiment: monolayer binding of 2.16 nM 125I-CNTF to SH-SY5Y cells (3 x 10^5 cells/well, endogenous receptor); specific cpm per cell
[21] = target: human ciliary neurotrophic factor receptor (CNTFR) (human); experiment: monolayer binding of 2.16 nM 125I-CNTF to COS cells transfected with clone I2 (6.5 x 10^4 cells/well); cpm with 1000-fold excess unlabelled CNTF subtracted
[22] = target: human ciliary neurotrophic factor receptor (CNTFR) (human); experiment: approx. 100 pM iodinated CNTF on SH-SY5Y cells; control pre-treatment without PI-PLC; no cold excess
[23] = target: human ciliary neurotrophic factor receptor (CNTFR) (human); experiment: approx. 100 pM iodinated CNTF on SH-SY5Y cells pre-treated with PI-PLC 500 mU/ml (receptor released before binding); no cold excess
[24] = target: human ciliary neurotrophic factor receptor (CNTFR) (human); experiment: iodinated CNTF bound to SH-SY5Y cells first, then incubation without PI-PLC; with excess unlabelled CNTF (non-specific)
[25] = target: human ciliary neurotrophic factor receptor (CNTFR) (human); experiment: iodinated CNTF bound to SH-SY5Y cells first, then PI-PLC 500 mU/ml for 45 min; with excess unlabelled CNTF (non-specific)
[26] = target: human ciliary neurotrophic factor receptor (CNTFR) (human); experiment: iodinated CNTF bound to SH-SY5Y cells first, then PI-PLC 500 mU/ml for 45 min; no cold excess
[27] = target: human ciliary neurotrophic factor receptor (CNTFR) (human); experiment: iodinated CNTF bound to SH-SY5Y cells first, then incubation without PI-PLC; no cold excess

CPM bound (125I-GaM) [1]: 2000 CPM | CPM bound (125I-GaM) [2]: 8000 CPM | CPM bound (125I-GaM) [3]: 7000 CPM | CPM bound (125I-GaM) [4]: 1600 CPM | CPM bound (125I-GaM) [5]: 4500 CPM | CPM bound (125I-GaM) [6]: 7500 CPM | CPM bound (125I-GaM) [7]: 8500 CPM | CPM bound (125I-GaM) [8]: 5000 CPM | CPM bound (125I-GaM) [9]: 9000 CPM | CPM bound (125I-GaM) [10]: 6000 CPM | fold increase (FACS fluorescence) against cells transfected with negative clones [11]: 100 fold | CPM bound (125I-GaM) [12]: 7000 CPM | CPM bound (125I-GaM) [13]: 2000 CPM | CPM bound (125I-GaM) [14]: 8000 CPM | CPM bound (125I-GaM) [15]: 10000 CPM
Substance: CNTF/myc (CNTF carrying a C-terminal ten amino acid c-myc epitope tag) (ligand)

Specific cpm bound [16]: 1280 cpm | CPM Bound [17]: 310 CPM | CPM Bound [18]: 370 CPM | cpm/cell [19]: 0.0217 cpm/cell | cpm/cell [20]: 0.00428 cpm/cell | Specific cpm bound [21]: 1410 cpm | CPM Bound [22]: 1440 CPM | CPM Bound [23]: 420 CPM | CPM Bound [24]: 310 CPM | CPM Bound [25]: 300 CPM | CPM Bound [26]: 1060 CPM | CPM Bound [27]: 1250 CPM
Substance: 125I-hCNTF (iodinated human ciliary neurotrophic factor) (from UniProt P26441 1-200) (ligand)

Source: patent publication EP0533846B1
